± gives the uncertainty stated by the source.
B1: 3'-5' exoribonuclease 1, residues 65 to 114; numbered along this chain, Q8IV48 (parent)
chain: VYKEIAITNGCINRMSKEELRAKLSEFKLETRGVKDVLKKRLKNYYKKQK
B2: Ankyrin-3, residues 4094 to 4171; numbered along this chain, Q12955 (parent)
chain: MAIVADHLGLSWTELARELNFSVDEINQIRVENPNSLISQSFMLLKKWVTRDGKNATTDALTSVLTKINRIDIVTLLE

Variants of: B1
Experiment: abundance fitness (aPCA) (normalised: wild type 0, dead -1); higher = more abundant; growth selection in yeast, the domain comes from the species named
Conditions: Homo sapiens

Variant	abundance fitness
VYKEIEITNGCINRMSKEELRAKLSEFKLETRGVKDVLKKRLKNYYKKQK [A6E]	-0.092 ± 0.14
VYKEIAITNGCINRMSKEELRAKLSPFKLETRGVKDVLKKRLKNYYKKQK [E26P]	-0.964 ± 0.099
VYKEIAITNGCINRMSKEELRAKLSYFKLETRGVKDVLKKRLKNYYKKQK [E26Y]	-0.153 ± 0.067
VYKEIAITNGCINRMSKEELRAKLSFFKLETRGVKDVLKKRLKNYYKKQK [E26F]	-0.169 ± 0.07
VYKEIAITNGCINRMSKEELRAKLSEFKLETRGVKDVLNKRLKNYYKKQK [K39N]	-0.582 ± 0.057
VYKEIAITNGCINRMSKEELRAKLSEFKLENRGVKDVLKKRLKNYYKKQK [T31N]	-0.115 ± 0.038
VYKEIAITNGCINRMSKEELRAKLSEFKLEVRGVKDVLKKRLKNYYKKQK [T31V]	-0.106 ± 0.041
VYKEIAITNGCINRMSKEELRAKLSEFKLETRGVKDVLKKKLKNYYKKQK [R41K]	-0.914 ± 0.089
VYKEIAITNGCINRMSKEELRAKLSEFKLETRGVKDVLKKVLKNYYKKQK [R41V]	-1.02 ± 0.052
VYKEIAITNGCINRMSKEELRAKLSEFKLETRGAKDVLKKRLKNYYKKQK [V34A]	-0.177 ± 0.051
VYKEIAITNGCINRMSKEELRAKLSEFKLETRGVKHVLKKRLKNYYKKQK [D36H]	0 ± 0.036
VYKEIAITNGCINRMSKEELRAKLSEFKLETRGVKDVLKKRLKNYYKKQG [K50G]	-0.299 ± 0.12
VYKEIAITNGCINRESKEELRAKLSEFKLETRGVKDVLKKRLKNYYKKQK [M15E]	-1.05 ± 0.18
VYKEIAITNGCINRHSKEELRAKLSEFKLETRGVKDVLKKRLKNYYKKQK [M15H]	-0.873 ± 0.062
VYKEIAITNGCINRMSKEELRAKLSEFKLETRGVKDVHKKRLKNYYKKQK [L38H]	-1.02 ± 0.076
VYKEIAITNGCYNRMSKEELRAKLSEFKLETRGVKDVLKKRLKNYYKKQK [I12Y]	-0.699 ± 0.06
VYKEIAITNGCINRMSKEELRAKLSEFKLETRGVKDVLKKRLQNYYKKQK [K43Q]	-0.469 ± 0.068
VYKEIAITNGCINRMSKEELRAKLSEFKLETRGVKDVLKKRLGNYYKKQK [K43G]	-0.846 ± 0.043
VYKEIAITNGCINRMSKEELRAKLSEFKLETRGVKDVLKKRLYNYYKKQK [K43Y]	-0.723 ± 0.083
VYKEIAITNGCINRMSKEELRAKLSEFKLETRGVKDVLKKRLINYYKKQK [K43I]	-0.448 ± 0.074

Variant	abundance fitness
VYKEIAITNGCINRMSKEELRAKVSEFKLETRGVKDVLKKRLKNYYKKQK [L24V]	-0.813 ± 0.046
VYKEIAITNGCINRMSKEELRAKLSEFKLETRGVKDVLKKRPKNYYKKQK [L42P]	-0.999 ± 0.081
VYKEIAITNGCINRMSKEELRAKLSEFKLETRGVKDVLKKRGKNYYKKQK [L42G]	-0.871 ± 0.038
VYGEIAITNGCINRMSKEELRAKLSEFKLETRGVKDVLKKRLKNYYKKQK [K3G]	-0.05 ± 0.041
VYKEIAITNGCINRMSKEELRAKLSEEKLETRGVKDVLKKRLKNYYKKQK [F27E]	-0.036 ± 0.062
VYKEIAITNGCINRMSKEELRAKLTEFKLETRGVKDVLKKRLKNYYKKQK [S25T]	-0.126 ± 0.048
VYKEIAITNGCINRMSAEELRAKLSEFKLETRGVKDVLKKRLKNYYKKQK [K17A]	-0.209 ± 0.076
VYKERAITNGCINRMSKEELRAKLSEFKLETRGVKDVLKKRLKNYYKKQK [I5R]	-0.101 ± 0.039
VYKEIAITNGCINRMSKEELRCKLSEFKLETRGVKDVLKKRLKNYYKKQK [A22C]	-0.032 ± 0.044
VYKNIAITNGCINRMSKEELRAKLSEFKLETRGVKDVLKKRLKNYYKKQK [E4N]	-0.057 ± 0.056
VYKEIAITNGCINRMSKEELRAKLSEFKLETRGVKDVLKKRLKNYLKKQK [Y46L]	0.079 ± 0.038
VYKEIAITNGCINRMSKEELRAKLSEFKLETRGVKDVLKKRLKNYPKKQK [Y46P]	-1 ± 0.07
VYKEIAITNGCINRMSKEELRAKLSEFKLETRGVKDVLKKRLKNYYKKKK [Q49K]	-0.083 ± 0.055
VYKEIAITNGCINRMSKEELRAKLSEFKLETRGVKDVLKKRLKNMYKKQK [Y45M]	-0.643 ± 0.059
VYKEIAITNGCINRMSKEELRAKLSEFCLETRGVKDVLKKRLKNYYKKQK [K28C]	-0.127 ± 0.053
VYKEIAITNGCINRMSKEELRAKLSEFQLETRGVKDVLKKRLKNYYKKQK [K28Q]	-0.124 ± 0.068
VYKEIAITNGCINRMSKEELRAKLSEFGLETRGVKDVLKKRLKNYYKKQK [K28G]	0.038 ± 0.043
VYKEIAITNGCINRMSKENLRAKLSEFKLETRGVKDVLKKRLKNYYKKQK [E19N]	-0.299 ± 0.061
VYKEIAITNGCINRMSKYELRAKLSEFKLETRGVKDVLKKRLKNYYKKQK [E18Y]	-0.179 ± 0.054
VYKEIAITNGCINRMSKEELFAKLSEFKLETRGVKDVLKKRLKNYYKKQK [R21F]	-0.688 ± 0.062

Variants of: B2
Experiment: as above
Conditions: Homo sapiens

Variant	abundance fitness
MAIVADHLGLSWTELARELNFSVDESNQIRVENPNSLISQSFMLLKKWVTRDGKNATTDALTSVLTKINRIDIVTLLE [I26S]	-0.805 ± 0.17
MAIVADHLGLSWTELARELNFSVDEINQIRVENPNSLISQSFMLLKKWVTRDGKNATTDALTSRLTKINRIDIVTLLE [V64R]	-0.298 ± 0.12
MAIVADHLGLSWTELARELNFSVDEINQIRVENPNSLISQSFMLLKKWVTRDGKMATTDALTSVLTKINRIDIVTLLE [N55M]	-0.047 ± 0.075
MAIVADHLGLSWTELARELNFSVDEINQIRVENPNSLISQSFMLLKKWVTRDGKNATTDARTSVLTKINRIDIVTLLE [L61R]	-0.412 ± 0.067
MAIVADHLGLSWTELWRELNFSVDEINQIRVENPNSLISQSFMLLKKWVTRDGKNATTDALTSVLTKINRIDIVTLLE [A16W]	-0.79 ± 0.2
MAIMADHLGLSWTELARELNFSVDEINQIRVENPNSLISQSFMLLKKWVTRDGKNATTDALTSVLTKINRIDIVTLLE [V4M]	-0.963 ± 0.23
MAIVADHLGLSWTELARFLNFSVDEINQIRVENPNSLISQSFMLLKKWVTRDGKNATTDALTSVLTKINRIDIVTLLE [E18F]	-0.451 ± 0.13
MAIVADHLGLSWTELARELNFSVDEINQIRVENPYSLISQSFMLLKKWVTRDGKNATTDALTSVLTKINRIDIVTLLE [N35Y]	-0.307 ± 0.14
